Data: patent US20090304667A1 (POSTECH ACADEMY INDUSTRY, published 2009)

Target: T1, PLD2^wt (Homo sapiens, UniProt O14939 1-933)
T1 construct: Ectopically expressed in COS7 or HEK293 cells from a mammalian expression vector; used as cell lysate; also called phospholipase D2
Experiment: GST pull-down with PLD2-expressing cell lysates

T1 sequence (O14939 whole entry R172C/T577I): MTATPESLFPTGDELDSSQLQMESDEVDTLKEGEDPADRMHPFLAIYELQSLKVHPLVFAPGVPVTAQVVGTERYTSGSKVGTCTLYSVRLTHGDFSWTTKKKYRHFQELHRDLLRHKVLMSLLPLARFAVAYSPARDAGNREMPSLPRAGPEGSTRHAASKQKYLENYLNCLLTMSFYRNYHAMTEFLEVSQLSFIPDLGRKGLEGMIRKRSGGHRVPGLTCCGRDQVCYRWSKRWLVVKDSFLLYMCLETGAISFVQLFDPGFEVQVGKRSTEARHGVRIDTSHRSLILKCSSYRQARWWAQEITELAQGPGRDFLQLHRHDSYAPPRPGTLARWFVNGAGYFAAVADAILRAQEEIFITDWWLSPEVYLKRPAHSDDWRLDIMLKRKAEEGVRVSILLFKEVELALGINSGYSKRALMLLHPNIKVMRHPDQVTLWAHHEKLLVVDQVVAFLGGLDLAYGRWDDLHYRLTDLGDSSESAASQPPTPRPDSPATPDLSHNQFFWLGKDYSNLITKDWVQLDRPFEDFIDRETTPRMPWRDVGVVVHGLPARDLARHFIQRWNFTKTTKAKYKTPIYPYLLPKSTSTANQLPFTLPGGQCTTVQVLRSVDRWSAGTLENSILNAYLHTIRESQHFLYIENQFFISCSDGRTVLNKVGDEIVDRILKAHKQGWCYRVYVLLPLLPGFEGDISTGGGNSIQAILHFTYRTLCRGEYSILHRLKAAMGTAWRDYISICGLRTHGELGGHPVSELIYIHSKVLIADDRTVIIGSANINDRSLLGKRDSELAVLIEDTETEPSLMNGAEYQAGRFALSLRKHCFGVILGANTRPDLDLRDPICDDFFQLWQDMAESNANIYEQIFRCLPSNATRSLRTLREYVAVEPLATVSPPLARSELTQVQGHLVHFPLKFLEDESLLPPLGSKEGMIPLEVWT

B1: GST-R-Ras (other, UniProt P10301 1-218, looked up)
chain: MSSGAASGTGRGRPRGGGPGPGDPPPSETHKLVVVGGGGVGKSALTIQFIQSYFVSDYDPTIEDSYTKICSVDGIPARLDILDTAGQEEFGAMREQYMRAGHGFLLVFAINDRQSFNEVGKLFTQILRVKDRDDFPVVLVGNKADLESQRQVPRSEASAFGASHHVAYFEASAKLRLNVDEAFEQLVRAVRKYQEQELPPSPPSAPRKKGGGCPCVLL
notes: Expressed in E. coli, on glutathione-Sepharose beads; also called GST-Ras; not shown: GST tag
binding result: no binding
